Source: patent publication US20170145112A1 (Genentech, published 2017)

Tests used:
[1] = target: T1, Human complement Factor D, mature (human, UniProt P00746 27-253); assay: cell-based or functional assay
[2] = target: T1, Human complement Factor D, mature; assay: SPR, Biacore T200, IgG captured by anti-Fc, human factor D injected
[3] = target: T1, Human complement Factor D, mature; assay: cell-based or functional assay; remark: listed apart in the source
[4] = target: T1, Human complement Factor D, mature; assay: SPR, Fab captured by anti-huFab, human Factor D injected
Method: (§1) Kinetics and binding constant KD for Factor D binding to immobilized hu20D12 versions was determined by surface plasmon resonance (SPR) measurements on a Biacore®T200 instrument. […] After subtraction of the sensorgram observed for injection of running buffer, data were analyzed according to a 1:1 model using BiaEval software v4.1 (GE Healthcare) to extract the kinetics and affinity constants.

[5] = target: T1, Human complement Factor D, mature; assay: SPR, at the limit of detection
Target sequence in this assay (P00746 27-253): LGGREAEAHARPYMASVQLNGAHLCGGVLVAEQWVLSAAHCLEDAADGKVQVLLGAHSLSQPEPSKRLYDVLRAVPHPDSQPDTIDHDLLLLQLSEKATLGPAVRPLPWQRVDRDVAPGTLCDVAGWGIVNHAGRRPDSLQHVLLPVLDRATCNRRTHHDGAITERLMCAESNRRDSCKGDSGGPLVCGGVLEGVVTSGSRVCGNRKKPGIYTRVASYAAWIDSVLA
Method: as §1

[6] = target: T2, Cynomolgus monkey complement Factor D (cynomolgus monkey, UniProt P00746 26-253 (human entry)); assay: SPR, cynomolgus monkey factor D
T2 construct: also called cyfD; cFD
T2 chain: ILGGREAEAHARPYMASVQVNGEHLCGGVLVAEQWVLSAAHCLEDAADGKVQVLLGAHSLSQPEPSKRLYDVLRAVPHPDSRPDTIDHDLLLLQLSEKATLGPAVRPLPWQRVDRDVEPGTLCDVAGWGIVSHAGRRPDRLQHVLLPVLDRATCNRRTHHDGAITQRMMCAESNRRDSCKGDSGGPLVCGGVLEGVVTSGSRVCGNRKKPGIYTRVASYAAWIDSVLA

[7] = target: T1, Human complement Factor D, mature; assay: cell-based or functional assay; remark: listed apart in the source
Target sequence in this assay (P00746 27-253): as the sequence (P00746 27-253) above

[8] = target: T1, Human complement Factor D, mature; assay: cell-based or functional assay; remark: listed apart in the source
[9] = target: T1, Human complement Factor D, mature; assay: SPR, Fab captured by anti-huFab, human Factor D injected; remark: listed apart in the source
[10] = target: T1, Human complement Factor D, mature; assay: SPR (Biacore T200): Fab captured with anti-huFab kit, human Factor D injected, 25 C, 1:1 model;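 also: sensorgrams were corrected by subtracting a blank injection of running buffer before fitting kinetic and affinity constants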
Method: as §1

[11] = target: T1, Human complement Factor D, mature; assay: cell-based or functional assay; remark: listed apart in the source
[12] = target: T1, Human complement Factor D, mature; assay: cell-based or functional assay; remark: listed apart in the source
Target sequence in this assay (P00746 27-253): as the sequence (P00746 27-253) above

[13] = target: T1, Human complement Factor D, mature; assay: SPR (refers to FIG. 11); hu20D12.v2.0
Method: as §1

[14] = target: T2, Cynomolgus monkey complement Factor D; assay: SPR (Biacore T200), Fab format; cynomolgus Factor D (column 'KD (pM) cFD (cyno)')

B1: murine 20D12 (mu20D12) IgG (antibody, V domains shown)
VH: QVQLQQSGAELVKPGASVKLSCKASGYTFTSYYMYWVKERPGQGLEWIGEINPTNGGTNFNEKFKSKATLTVDTSSNTAYMQLSSLTSEDSAVYYCAREGGFAYWGQGTLVTVSA
VL: DIVMTQSQKFMSTSVGDRVSVTCKASQNVDTDVAWFQQKPGQSPRGLIYSASSRYSGVPDRFTGSGSGTDFTLTISNVQSEDLAEYFCQQYNNYPLTFGSGTKVEIK
notes: IgG format, mouse antibody
B1 was tested, and the “Hemolysis IC50” value [1] was 4 nM, the Kd [2] was 0.066 nM and the koff [2] was 0.00039 s⁻¹. The kon [2] was 5.9e+06 M⁻¹ s⁻¹.

B2: hu20D12.v1 Fab (Fab, V domains shown)
VH: EVQLVQSGAEVKKPGASVKVSCKASGYTFTSYYMYWVRQAPGQGLEWIGEINPTNGGTNFNEKFKSRATLTVDTSTSTAYLELSSLRSEDTAVYYCAREGGFAYWGQGTLVTVSS
VL: DIQMTQSPSSLSASVGDRVTITCKASQNVDTDVAWFQQKPGKAPKGLIYSASSRYSGVPSRFSGSGSGTDFTLTISSLQPEDFATYYCQQYNNYPLTFGQGTKVEIKR
notes: Fab expressed in E. coli
With B2 the “IC50 Hemolysis” value [3] was 2.8 nM and the Kd [4] was 0.033 nM.

B3: hu20D12.v1 IgG (antibody, V domains shown)
VH: EVQLVQSGAEVKKPGASVKVSCKASGYTFTSYYMYWVRQAPGQGLEWIGEINPTNGGTNFNEKFKSRATLTVDTSTSTAYLELSSLRSEDTAVYYCAREGGFAYWGQGTLVTVSS
VL: DIQMTQSPSSLSASVGDRVTITCKASQNVDTDVAWFQQKPGKAPKGLIYSASSRYSGVPSRFSGSGSGTDFTLTISSLQPEDFATYYCQQYNNYPLTFGQGTKVEIK
notes: Expressed as full length IgG in CHO cells
B3 was tested, and the “Hemolysis IC50” value [1] was 4.3 nM, the Kd [2] was 0.046 nM and the koff [2] was 0.00067 s⁻¹. The kon [2] was 1.5e+07 M⁻¹ s⁻¹.

B4: hu20D12.v2.1 Fab (Fab, V domains shown)
VH: EVQLVQSGAEVKKPGASVKVSCKASGYTFTSYYMYWVRQAPGQGLEWIGEINPTSGGTNFNEKFKSRATLTVDTSTSTAYLELSSLRSEDTAVYYCAREGGFAYWGQGTLVTVSS
VL: DIQMTQSPSSLSASVGDRVTITCKASQNVDTDVAWFQQKPGKAPKGLIRSASSRYSGVPSRFSGSGSGTDFTLTISSLQPEDFATYYCQQYNNYPLTFGQGTKVEIKR
B4 was tested, and the Kd [5] was about 0.01 nM, the Kd [6] was 0.017 nM and the “fold improvement of affinity relative to hu20D12.v2.0” value [6] was about 10 fold. The “fold improvement of affinity relative to lampalizumab” value [6] was 2 fold, the “IC50, TR-FRET assay of Factor D (50 pM) cleavage of factor B” value [7] was 32 pM and the “FRET IC50 (TR-FRET assay of Factor D-dependent factor B activation), value 1 of 2 in the cell” value [8] was 0.033 nM. For the same binder, the “FRET IC50 (TR-FRET assay of Factor D-dependent factor B activation), value 2 of 2 in the cell” value [8] was 0.032 nM, the “fold improvement in binding relative to hu20D12.v2.0” value [9] was at least 4 fold and the Kd [10] was under 0.01 nM. The koff [10] was 8.1e-05 s⁻¹ and the kon [10] was 1.2e+07 M⁻¹ s⁻¹.

B5: hu20D12.v1.1 Fab (Fab, V domains shown)
VH: EVQLVQSGAEVKKPGASVKVSCKASGYTFTSYYMYWVRQAPGQGLEWIGEINPTQGGTNFNEKFKSRATLTVDTSTSTAYLELSSLRSEDTAVYYCAREGGFAYWGQGTLVTVSS
VL: DIQMTQSPSSLSASVGDRVTITCKASQNVDTDVAWFQQKPGKAPKGLIYSASSRYSGVPSRFSGSGSGTDFTLTISSLQPEDFATYYCQQYNNYPLTFGQGTKVEIKR
notes: Fab expressed in E. coli; also called Hu20D12.v1.N54Q
B5 was tested, and the “IC50 Hemolysis” value [3] was 6.7 nM and the Kd [4] was 0.045 nM.

B6: hu20D12.v2.0 Fab (Fab, V domains shown)
VH: EVQLVQSGAEVKKPGASVKVSCKASGYTFTSYYMYWVRQAPGQGLEWIGEINPTSGGTNFNEKFKSRATLTVDTSTSTAYLELSSLRSEDTAVYYCAREGGFAYWGQGTLVTVSS
VL: DIQMTQSPSSLSASVGDRVTITCKASQNVDTDVAWFQQKPGKAPKGLIYSASSRYSGVPSRFSGSGSGTDFTLTISSLQPEDFATYYCQQYNNYPLTFGQGTKVEIKR
notes: Fab expressed in E. coli; also called Hu20D12.v1.N54S; hu20D12.v1.N54S
B6 was tested, and the “IC50 in the TR-FRET assay, fold against lampalizumab” value [11] was about 2 fold, the “IC50 Hemolysis” value [3] was 4.7 nM and the “AVG IC50 (pM), TR-FRET assay of Factor D-dependent factor B activation” value [12] was 59.2 pM. The “FRET IC50 (TR-FRET assay of Factor D-dependent factor B activation), value 1 of 2 in the cell” value [8] was 0.051 nM, the “FRET IC50 (TR-FRET assay of Factor D-dependent factor B activation), value 2 of 2 in the cell” value [8] was 0.059 nM and the Kd [13] was 0.039 nM. It also gave a Kd [4] of 0.04 nM, a Kd [14] of 0.152 nM and a koff [10] of 0.00055 s⁻¹. For the same binder, the kon [10] was 1.4e+07 M⁻¹ s⁻¹.

B7: hu20D12.v2.3 Fab (Fab, V domains shown)
VH: EVQLVQSGAEVKKPGASVKVSCKASGYTFTSYYMYWVRQAPGQGLEWIGEINPYSGDTNFNEKFKSRATLTVDTSTSTAYLELSSLRSEDTAVYYCAREGGFAYWGQGTLVTVSS
VL: DIQMTQSPSSLSASVGDRVTITCKASQNVDTDVAWFQQKPGKAPKGLIRSASSRYSGVPSRFSGSGSGTDFTLTISSLQPEDFATYYCQQYNNYPLTFGQGTKVEIKR
B7 was tested, and the “AVG IC50 (pM), TR-FRET assay of Factor D-dependent factor B activation” value [12] was 31.2 pM, the Kd [5] was about 0.01 nM and the “IC50, TR-FRET assay of Factor D (50 pM) cleavage of factor B” value [7] was 31 pM. For the same binder, the “FRET IC50 (TR-FRET assay of Factor D-dependent factor B activation), value 1 of 3 in the cell” value [8] was 0.025 nM, the “FRET IC50 (TR-FRET assay of Factor D-dependent factor B activation), value 2 of 3 in the cell” value [8] was 0.031 nM and the “FRET IC50 (TR-FRET assay of Factor D-dependent factor B activation), value 3 of 3 in the cell” value [8] was 0.031 nM. The Kd [14] was 0.024 nM, the Kd [10] was under 0.01 nM and the koff [10] was 2.9e-05 s⁻¹. For the same binder, the kon [10] was 1.2e+07 M⁻¹ s⁻¹.
